# Non-standard residues stand in square brackets, D forms with d. Phe(4-NO2) = N[C@@H](Cc1ccc([N+](=O)[O-])cc1)C(=O)O
# B1: TOLL/1-12pPhe-PADRE: fusion antigen: TOLL-1 linked via GPSL to helper epitope SEQ ID NO: 13 (protein)
# chain: SEFLVDRSKNGLIHVPKDLSQKTTILNISQNYISELWTSDILSLSKLRILIISHNRIQYLDISVFKFNQELEYLDLSHNKLVKISCHPTVNLKHLDLSFNAFDALPICKEFGNMSQLKFLGLSTTHLEKSSVLPIAHLNISKVLLVLGETYGEKEDPEGLQDFNTESLHIVFPTNKEFHFILDVSVKTVANLELSNIKCVLEDNKCSYFLSILAKLQTNPKLSNLTLNNIETTWNSFIRILQLVWHTTVWYFSISNVKLQGQLDFRDFDYSGTSLKALSIHQVVSDVFGFPQSYIYEIFSNMNIKNFTVSGTRMVHMLCPSKISPFLHLDFSNNLLTDTVFENCGHLTELETLILQMNQLKELSKIAEMTTQMKSLQQLDISQNSVSYDEKKGDCSWTKSLLSLNMSSNILTDTIFRCLPPRIKVLDLHSNKIKSIPKQVVKLEALQELNVAFNSLTDLPGCGSFSSLSVLIIDHNSVSHPSADFFQSCQKMRSIKAGDNPFQCTCELGEFVKNIDQVSSEVLEGWPDSYKCDYPESYRGTLLKDFHMSELSCNITGPSLAKFVAAWTLKA[Phe(4-NO2)]A
# B2: VEGFR-8pPhe-PADRE: fusion antigen: VEGFR extracellular domain linked via GPSL to helper epitope SEQ ID NO: 9 (protein)
# chain: ASVGLPSVSLDLPRLSIQKDILTIKANTTLQITCRGQRDLDWLWPNNQSGSEQRVEVTECSDGLFCKTLTIPKVIGNDTGAYKCFYRETDLASVIYVYVQDYRSPFIASVSDQHGVVYITENKNKTVVIPCLGSISNLNVSLCARYPEKRFVPDGNRISWDSKKGFTIPSYMISYAGMVFCEAKINDESYQSIMYIVVVVGYRIYDVVLSPSHGIELSVGEKLVLNCTARTELNVGIDFNWEYPSSKHQHKKLVNRDLKTQSGSEMKKFLSTLTIDGVTRSDQGLYTCAASSGLMTKKNSTFVRVHEKPFVAFGSGMESLVEATVGERVRIPAKYLGYPPPEIKWYKNGIPLESNHTIKAGHVLTIMEVSERDTGNYTVILTNPISKEKQSHVVSLVVYVPPQIGEKSLISPVDSYQYGTTQTLTCTVYAIPPPHHIHWYWQLEEECANEPSQAVSVTNPYPCEEWRSVEDFQGGNKIEVNKNQFALIEGKNKTVSTLVIQAANVSALYKCEAVNKVGRGERVISFHVTRGPEITLQPDMQPTEQESVSLWCTADRSTFENLTWYKLGPQPLPIHVGELPTPVCKNLDTLWKLNATMFSNSTNDILIMELKNASLQDQGDYVCLAQDRKTKKRHCVVRQLTVLERVAPTITGNLENQTTSIGESIEVSCTASGNPPPQIMWFKDNETLVEDSGIVLKDGNRNLTIRRVRKEDEGLYTCQACSVLGCAKVEAFFIIEGAQEKTNLEGPSLAKFVAAW[Phe(4-NO2)]LKAAA
# B3: PSMA-11pPhe-PADRE: fusion antigen: PSMA linked via GPSL to helper epitope SEQ ID NO: 12 (protein)
# chain: QGQAQQQAYDRGITIFSPDGRLYQVEYAREAVKRGTASIGVRTPEGVVLAADKRSRSPLMEPTSVEKIHKADDHIGIASAGHVADARQLIDFARRQSQVNRLRYGEPIGIETLTKEVTDHIQQYTQVGGARPFGVALLIGGVENGTPRLYETDPSGTPYEWKAVSIGADRGDHQEHLEENFRDDLTLDEGIELALEAIASTSDEGTAPDGVDVATVSAETERFVELSNDEIESYLEANDLLATEDDEQTEEGPSLAKFVAAWTLK[Phe(4-NO2)]AA
# B4: FRα-3 ? 8pPhe-PADRE: fusion antigen: FR-α linked via GPSL to helper epitope SEQ ID NO: 16 (protein)
# chain: RIAWARTELLNVCMNAKHHKEKPGPEDKLHEQCRPWRKNACCSTNTSQEAHKDVSYLYRFNWNHCGEMAPACKRHFIQDTCLYECSPNLGPWIQQVDQSWRKERVLNVPLCKEDCEQWWEDCRTSYTCKSNWHKGWNWTSGFNKCAVGAACQPFHFYFPTPTVLCNEIWTHSYKVSNYSRGSGRCIQMWFDPAQGNPNEEVARFYAAAMSGPSLAKXVAAWXLKAAA
# modifications: pPhe non-natural residue; (217)..(217) Xaa stands for 4-Nitrophenylalanine.; (222)..(222) Xaa stands for 4-Nitrophenylalanine.
# B5: IL/2Ra-9pPhe-PADRE: fusion antigen: IL-2Ra linked via GPSL to helper epitope SEQ ID NO: 10 (protein)
# chain: ELCDDDPPEIPHATFKAMAYKEGTMLNCECKRGFRRIKSGSLYMLCTGNSSHSSWDNQCQCTSSATRNTTKQVTPQPEEQKERKTTEMQSPMQPVDQASLPGHCREPPPWENEATERIYHFVVGQMVYYQCVQGYRALHRGPAESVCKMTHGKTRWTQPQLICTGEMETSQFPGEEKPQASPEGRPESETSCLVTTTDFQIQTEMAATMETSIFTTEYQGPSLAKFVAAWT[Phe(4-NO2)]KAAA
# B6: EPCAM-3 ? 11pPhe-PADRE: fusion antigen: EPCAM linked via GPSL to helper epitope SEQ ID NO: 17 (protein)
# chain: QEECVCENYKLAVNCFVNNNRQCQCTSVGAQNTVICSKLAAKCLVMKAEMNGSKLGRRAKPEGALQNNDGLYDPDCDESGLFKAKQCNGTSMCWCVNTAGVRRTDKDTEITCSERVRTYWIIIELKHKAREKPYDSKSLRTALQKEITTRYQLDPKFITSILYENNVITIDLVQNSSQKTQNDVDIADVAYYFEKDVKGESLFHSKKMDLTVNGEQLDLDPGQTLIYYVDEKAPEFSMQGLKGPSLAK[Phe(4-NO2)]VAAWTLK[Phe(4-NO2)]AA
# Experiments:
# Test in all cases: Antibody titer in serum of immunized mice, indirect ELISA
# Type in all cases: in vivo
# [1] = tested on: TOLL-1; conditions: FIG. 12; compared with the TOLL-1 group and the TOLL-1-PADRE group; mice immunized subcutaneously, 50 μg, Freund's adjuvant
# Experimental: (§1) The protocol is as follows: • (1) The helper epitope was connected to individual antigens or antigen epitope with the linking peptide to construct multiple fusion antigens. The sequence of the linking peptide is GPSL (i.e. Gly-Pro-Ser-Leu) (SEQ ID NO:51). • (2) The fusion antigens from (1) were emulsified adequately with complete Freund's adjuvant of the same volume. Then to immunize mice via subcutaneous injection with the emulsion at the dose of 50 μg per mouse. The strains of experimental mice including C57, Fvb and Balb/C. After 7 days and 14 days of first immunization, the fusion antigens from (1) were emulsified adequately with incomplete Freund's adjuvant of the same volume and then to immunize mice via subcutaneous injection with the emulsion at the dose of 50 μg per mouse. • (3) There are two detection methods. One is to obtain the orbital blood of immunized mice on 7, 14, 21 and 28 day respectively, centrifuge the whole blood to get the serum. Then the antibody titer is detected by indirect ELISA. The other one is: one week after the last immunization, the mice are killed to get the spleen. PBMC (peripheral blood mononuclear cells) are isolated, and the CTL-mediated cytotoxicity is detected by LDH (lactate dehydrogenase) kit.
# (§2) The first step was to construct the fusion antigen. According to each fusion antigen, C57BL/6 female mice aged 6-8 weeks were randomly divided into three groups with 6 mice in each group. They were PBS group, existing antigen or antigen epitope group, antigen-PADRE or antigen epitope-PADRE group, and vaccine group containing fusion antigen.
# (§3) In the second step, using fusion antigen to immunize mice via subcutaneous injection for 3 times […] 50 μg each time. Mixed with Freund's adjuvant of the same volume.
# (§4) Method 1: The whole blood was collected every week after immunization and centrifugated at 6000 rpm for 20 min to obtain the serum for a total of 4 weeks. Antibody titers were detected by indirect ELISA as follows: • (1) Coating: the existing antigen or antigen epitope was diluted to 5 μg/mL with coating solution. Then the 100 μL mixed solution was added into each well of enzyme immunoassay test strip, and incubated in 37° C. incubator for 2 h; • (2) use PBST to wash each well 5 times for 5 min each time; • (3) Sealing: 150 μL locking solution was added to each well of the enzyme immunoassay test strip and incubated at 4° C. overnight. • (4) Repeat step (2); • (5) Incubation first antibody: the collected mouse serum was diluted with antibody diluent. Then the 100 μL mixed solution was added into each well, and incubated at 37° C. for 2 h; • (6) Repeat step (2); • (7) Incubating secondary antibodies: HRP-GOAT Anti-mouse IgG was diluted with antibody dilution in the ratio of 1:10000, and 100 μL dilution was added to each well, and incubated at 37° C. for 45 min; • (8) Repeat step (2); • (9) Substrate addition: 100 μL TMB substrate reaction solution was added into each well of enzyme label, and incubated at 37° C. for 15 min in darkness. • (10) Termination reaction: 50 μL 2M H2SO4 was added into each well to terminate the reaction. • (11) Color development: the absorbance value of the sample in each well was detected at 450/630 nm.
# [2] = tested on: VEGFR extracellular domain; conditions: FIG. 8; compared with the VEGFR extracellular region group and the VEGFR-PADRE group; mice immunized subcutaneously, 50 μg, Freund's adjuvant
# Experimental: as §1, §2, §3, §4
# [3] = tested on: PSMA; conditions: FIG. 11; compared with the PSMA group and the PSMA-PADRE group; mice immunized subcutaneously, 50 μg, Freund's adjuvant
# Experimental: as §1, §2, §3, §4
# [4] = tested on: FR-α; conditions: FIG. 15; compared with the FR-α group and the FR-α-PADRE group; mice immunized subcutaneously, 50 μg, Freund's adjuvant
# Experimental: as §1, §2, §3, §4
# [5] = tested on: IL-2Ra; conditions: FIG. 9; compared with the IL-2Ra group and the IL-2Ra-PADRE group; mice immunized subcutaneously, 50 μg, Freund's adjuvant
# Experimental: as §1, §2, §3, §4
# [6] = tested on: EPCAM; conditions: FIG. 16; compared with the EPCAM group and the EPCAM-PADRE group; mice immunized subcutaneously, 50 μg, Freund's adjuvant
# Experimental: as §1, §2, §3, §4
molecule,measurement,setting,value
B1,antibody titers,[1],increased significantly
B2,antibody titers,[2],increased significantly
B3,antibody titers,[3],increased significantly
B4,antibody titers,[4],increased significantly
B5,antibody titers,[5],increased significantly
B6,antibody titers,[6],increased significantly

# Reference: US12226476B2, “Helper epitope peptide and application thereof” (CHINA PHARMACEUTICAL UNIVERSITY, priority 2018, dated 2025)
